Target: MBP-SCC1 (aa 100-320) with C-terminal tetracysteine motif, FlAsH-labelled (human) (UniProt O60216)
Assay: fluorescence polarisation

Sequence of MBP-SCC1 (aa 100-320) with C-terminal tetracysteine motif, FlAsH-labelled (human) (O60216 100-320): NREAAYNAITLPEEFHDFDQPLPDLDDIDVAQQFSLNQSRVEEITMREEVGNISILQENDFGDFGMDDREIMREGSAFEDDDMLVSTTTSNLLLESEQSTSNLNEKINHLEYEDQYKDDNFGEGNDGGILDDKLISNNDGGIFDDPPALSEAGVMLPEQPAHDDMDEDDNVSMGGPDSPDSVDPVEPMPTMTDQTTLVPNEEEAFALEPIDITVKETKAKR

Substance: inactive apo-separase (separase^C2029S), Q14674 1-2120
- fold lower Kd than for SCC1^350–550: 3 fold

— doi:10.1101/2025.03.24.644901
